Results published in publication PMC11629141.
pEC50, pKd: −log10 of the molar value.

What was measured:
[1] = target: S2B‐6G11 post MMP‐9 digestion and partial removal of the scFv on a 6G11‐based affinity column (human); test: BLI; 6G11 or light chain construct (5 µg/mL) loaded on Protein A biosensors; FcγRIIB 125 to 15.6 nM in 1:2 dilutions, 60 s association, 40 s dissociation in kinetics buffer
[2] = target: 6G11 (BI‐1206), full‐length antibody containing the PGLALA Fc mutations (human); test: as above
6G11 (BI‐1206), full‐length antibody containing the PGLALA Fc mutations (human), sequence (heavy, as listed by the source, chain 1 of 2): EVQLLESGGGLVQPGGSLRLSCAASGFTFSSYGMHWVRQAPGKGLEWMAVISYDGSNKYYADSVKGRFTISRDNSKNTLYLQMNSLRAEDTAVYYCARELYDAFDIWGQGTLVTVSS
6G11 (BI‐1206), full‐length antibody containing the PGLALA Fc mutations (human), sequence (light, as listed by the source, chain 2 of 2): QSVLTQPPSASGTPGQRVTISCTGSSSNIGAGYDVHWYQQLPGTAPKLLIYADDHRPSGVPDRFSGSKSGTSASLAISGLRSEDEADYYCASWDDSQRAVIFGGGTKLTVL

[3] = target: S2N‐6G11 (S2N scFv fused to the N‐terminus of the 6G11 light chain via an MMP‐9 cleavable linker), prior to MMP‐9 digestion (human | chicken); test: as above
S2N‐6G11 (S2N scFv fused to the N‐terminus of the 6G11 light chain via an MMP‐9 cleavable linker), prior to MMP‐9 digestion (human | chicken), sequence (heavy, as listed by the source, chain 1 of 4): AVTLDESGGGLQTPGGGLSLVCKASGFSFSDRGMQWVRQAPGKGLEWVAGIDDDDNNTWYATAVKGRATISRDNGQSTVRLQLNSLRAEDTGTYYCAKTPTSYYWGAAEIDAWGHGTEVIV
S2N‐6G11 (S2N scFv fused to the N‐terminus of the 6G11 light chain via an MMP‐9 cleavable linker), prior to MMP‐9 digestion (human | chicken), sequence (heavy, as listed by the source, chain 2 of 4): as the sequence (heavy, as listed by the source, chain 1 of 2) above
S2N‐6G11 (S2N scFv fused to the N‐terminus of the 6G11 light chain via an MMP‐9 cleavable linker), prior to MMP‐9 digestion (human | chicken), sequence (light, as listed by the source, chain 3 of 4): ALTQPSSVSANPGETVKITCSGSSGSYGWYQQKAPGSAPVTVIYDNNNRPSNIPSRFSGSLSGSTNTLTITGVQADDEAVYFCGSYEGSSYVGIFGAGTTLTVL
S2N‐6G11 (S2N scFv fused to the N‐terminus of the 6G11 light chain via an MMP‐9 cleavable linker), prior to MMP‐9 digestion (human | chicken), sequence (light, as listed by the source, chain 4 of 4): as the sequence (light, as listed by the source, chain 2 of 2) above

[4] = target: FcγRIIB on Raji cells (human (endogenous in Raji)) (UniProt P31994); test: flow cytometry on cells; 250.000 Raji cells (FcγRIIB+, CD20+) with 6G11 or light chain constructs 1000-0.005 nM (1:5 dilutions), 30 min RT in PBS-B; anti-human Fc PE secondary antibody

S2B‐6G11 post MMP‐9 digestion and partial removal of the scFv on a 6G11‐based affinity column (human), sequence (heavy, as listed by the source, chain 1 of 2): as the sequence (heavy, as listed by the source, chain 1 of 2) above
S2B‐6G11 post MMP‐9 digestion and partial removal of the scFv on a 6G11‐based affinity column (human), sequence (light, as listed by the source, chain 2 of 2): as the sequence (light, as listed by the source, chain 2 of 2) above

Substance	pKd [1]	pKd [2]	pKd [3]	pEC50 [4]
His‐tagged human FcγRIIB extracellular domain protein (from UniProt P31994 43-217) (domain or fragment)	8.23	7.49	8.08	
6G11 (BI‐1206), full‐length antibody containing the PGLALA Fc mutations				9.40
